Measured values published in US20100144634A1 (published 2010).
Each block holds one molecule with its values, some of them ahead of it.

Key:
[1] = molecular target: von Willebrand factor (VWF), purified plasma-derived, multimeric, native (UniProt P04275); assay: SPR (BIAcore), VWF injected under flow over immobilised T5-8CUB, equilibrium fit
[2] = molecular target: von Willebrand factor (VWF), purified plasma-derived, multimeric, native (UniProt P04275); assay: cell-based or functional assay
[3] = molecular target: von Willebrand factor (VWF), purified plasma-derived, multimeric, native (UniProt P04275)
[4] = molecular target: von Willebrand factor (VWF), purified plasma-derived, multimeric, native (UniProt P04275); assay: microtiter plate binding (ELISA format, anti-V5 detection), VWF immobilised, static
[5] = molecular target: von Willebrand factor (VWF), purified plasma-derived, multimeric, native (UniProt P04275); assay: SPR (BIAcore), VWF injected under flow over immobilised delCUB, equilibrium fit, no EDTA
[6] = molecular target: von Willebrand factor (VWF), purified plasma-derived, multimeric, native (UniProt P04275); assay: SPR (BIAcore) under laminar flow
[7] = molecular target: von Willebrand factor (VWF), purified plasma-derived, multimeric, native (UniProt P04275); assay: SPR (BIAcore), VWF injected under flow over immobilised delCUB, equilibrium fit, in the presence of 10 mM EDTA
[8] = molecular target: von Willebrand factor pre-denatured with 1.5 M guanidine-HCl at 37 C for two hours (UniProt P04275); assay: SPR (BIAcore), guanidine-HCl denatured VWF injected over immobilised delCUB, equilibrium fit
[9] = molecular target: von Willebrand factor pre-denatured with 1.5 M guanidine-HCl at 37 C for two hours (UniProt P04275); assay: SPR (BIAcore), guanidine-HCl denatured VWF injected over immobilised MDTCS, equilibrium fit
[10] = molecular target: von Willebrand factor (VWF), purified plasma-derived, multimeric, native (UniProt P04275); assay: microtiter binding assay, immobilised vWF
[11] = molecular target: recombinant vWF expressed in BHK cells overexpressing PACE/furin (UniProt P04275); assay: cell-based or functional assay
[12] = molecular target: von Willebrand factor (VWF), purified plasma-derived, multimeric, native (UniProt P04275); assay: SPR (BIAcore), VWF injected under flow over immobilised T2-8CUB, equilibrium fit
[13] = molecular target: von Willebrand factor (VWF), purified plasma-derived, multimeric, native (UniProt P04275); assay: SPR (BIAcore) under flow

Molecule: ADAMTS13 variant truncated after the 8th TSP-1 repeat (lacking the CUB domains), C-terminal V5-His
cleavage of VWF under vortex-induced mechanic shear stress [3]: A removal of the CUB domains (delCUB) or more (MDTCS) abrogates its ability to cleave VWF

Molecule: ADAMTS13 variant truncated after the spacer domain, C-terminal V5-His
cleavage of VWF under vortex-induced mechanic shear stress [3]: A removal of the CUB domains (delCUB) or more (MDTCS) abrogates its ability to cleave VWF

Molecule: ADAMTS13 variant truncated after the spacer domain, C-terminal V5-His (from UniProt Q76LX8 75-685) (enzyme)
Kd [4]: 56 nM
Kd [9]: 337 nM

Molecule: isolated light chain of FVIII (from UniProt P00451 1668-2351)
concentration of FVIII-LC achieving the half maximal rate enhancing effect (IC50) [2]: 2 nM
increase of the maximal proteolytic cleavage product (˜350 kDa) with 5 nM FVIII-LC [2]: 7 to 8 fold
Kd [10]: 17 nM

B1: ADAMTS13 TSP1 2-8 repeats plus CUB domains, N-terminal linker and Flag, C-terminal V5-His (protein, not shown: small tags and cut ends)
chain: AAQPARRARRTKLALDTKDDDDKHVWTPVAWVWAAVRGPCSVSCGAGLRWVNYSCLDQARKELVETVQCQGSQQPPAWPEACVLEPCPPYWAVGDFGPCSASCGGGLRERPVRCVEAQGSLLKTLPPARCRAGAQQPAVALETCNPQPCPARWEVSEPSSCTSAGGAGLALENETCVPGADGLEAPVTEGPGSVDEKLPAPEPCVGMSCPPGWGHLDATSAGEKAPSPWGSIRTGAQAAHVWTPAAGSCSVSCGRGLMELRFLCMDSALRVPVQEELCGLASKPGSRREVCQAVPCPARWQYKLAACSVSCGRGVVRRILYCARAHGEDDGEEILLDTQCQGLPRPEPQEACSLEPCPPRWKVMSLGPCSASCGLGTARRSVACVQLDQGQDVEVDEAACAALVRPEASVPCLIADCTYRWHVGTWMECSVSCGDGIQRRRDTCLGPQAQAPVPADFCQHLPKPVTVRGCWAGPCVGQGTPSLVPHEEAAAPGRTTATPAGASLEWSQARGLLFSPAPQPRRLLPGPQENSVQSSACGRQHLEPTGTIDMRGPGQADCAVAIGRPLGEVVTLRVLESSLNCSAGDMLLLWGRLTWRKMCRKLLDMTFSSKTNTLVVRQRCGRPGGGVLLRYGSQLAPETFYRECDMQLFGPWGEIVSPSLSPATSNAGGCRLFINVAPHARIAIHALATNMGAGTEGANASYILIRDTHSLRTTAFHGQQVLYWESESSQAEMEFSEGFLKAQASLRGQYWTLQSWVPEMQDPQSWKGKEGT
inhibition of proteolytic cleavage of VWF by ADAMTS13 under vortex-induced shear stress, fragment at 150 nM [2]: 100%
Kd [12]: 140 nM
fold increase in affinity against T5-8CUB [13]: 1.5 fold

The remaining lines, values ahead:

Kd [1]: 212 nM
inhibition of proteolytic cleavage of VWF by ADAMTS13 under vortex-induced shear stress, fragment at 150 nM [2]: 75%
Molecule: ADAMTS13 TSP1 5-8 repeats plus CUB domains, N-terminal linker and Flag, C-terminal V5-His (from UniProt Q76LX8 884-1191; Q76LX8 1192-1427)

Kd [4]: 70 nM
Kd [5]: 274 nM
fold reduction in affinity against full-length ADAMTS13 [6]: 5 fold
Kd [7]: 468 nM
Kd [8]: 242 nM
Molecule: ADAMTS13 variant truncated after the 8th TSP-1 repeat (lacking the CUB domains), C-terminal V5-His (from UniProt Q76LX8 75-1191) (enzyme)

half-maximal effect on vWF proteolysis by ADAMTS13 [2]: 2.5 nM
increase in vWF proteolysis by ADAMTS13 under shear stress [2]: 10 fold
Molecule: B-domainless derivative of human factor VIII, FVIII-SQ (from UniProt P00451 20-762; P00451 1657-1667; P00451 1668-2351)

Km of the enhancement of VWF cleavage by ADAMTS13 [2]: 2 to 3 nM
concentration of FVIII required for half maximal enhancement in product formation [2]: 3 nM
enhancement of ADAMTS13 cleavage of plasma vWF (350K product) in the presence of 10-20 nM FVIII [2]: 10 to 12 fold
half maximal effect of rFVIII on proteolytic cleavage of VWF by ADAMTS13 [2]: 2.9 nM
half-maximal effect of FVIII on cleavage of rvWF by ADAMTS13 [11]: 3 nM
increase in product formation with rvWF as substrate in the presence of 20 nM FVIII [11]: 10 fold
Molecule: recombinant human full-length coagulation factor VIII (from UniProt P00451 20-1667; P00451 1668-2351)
